The record followed here is paper PMC8948881, “Molecular Properties of Human Guanylate Cyclase-Activating Protein 3 (GCAP3) and Its Possible Association with Retinitis Pigmentosa” (International Journal of Molecular Sciences, 2022).

In data set [1] the target is T1, GC1 (GC-E, ROS-GC1, RetGC1) (Homo sapiens, UniProt Q02846).
T1 construct: gene GUCY2D
T1 sequence (Q02846 52-1103): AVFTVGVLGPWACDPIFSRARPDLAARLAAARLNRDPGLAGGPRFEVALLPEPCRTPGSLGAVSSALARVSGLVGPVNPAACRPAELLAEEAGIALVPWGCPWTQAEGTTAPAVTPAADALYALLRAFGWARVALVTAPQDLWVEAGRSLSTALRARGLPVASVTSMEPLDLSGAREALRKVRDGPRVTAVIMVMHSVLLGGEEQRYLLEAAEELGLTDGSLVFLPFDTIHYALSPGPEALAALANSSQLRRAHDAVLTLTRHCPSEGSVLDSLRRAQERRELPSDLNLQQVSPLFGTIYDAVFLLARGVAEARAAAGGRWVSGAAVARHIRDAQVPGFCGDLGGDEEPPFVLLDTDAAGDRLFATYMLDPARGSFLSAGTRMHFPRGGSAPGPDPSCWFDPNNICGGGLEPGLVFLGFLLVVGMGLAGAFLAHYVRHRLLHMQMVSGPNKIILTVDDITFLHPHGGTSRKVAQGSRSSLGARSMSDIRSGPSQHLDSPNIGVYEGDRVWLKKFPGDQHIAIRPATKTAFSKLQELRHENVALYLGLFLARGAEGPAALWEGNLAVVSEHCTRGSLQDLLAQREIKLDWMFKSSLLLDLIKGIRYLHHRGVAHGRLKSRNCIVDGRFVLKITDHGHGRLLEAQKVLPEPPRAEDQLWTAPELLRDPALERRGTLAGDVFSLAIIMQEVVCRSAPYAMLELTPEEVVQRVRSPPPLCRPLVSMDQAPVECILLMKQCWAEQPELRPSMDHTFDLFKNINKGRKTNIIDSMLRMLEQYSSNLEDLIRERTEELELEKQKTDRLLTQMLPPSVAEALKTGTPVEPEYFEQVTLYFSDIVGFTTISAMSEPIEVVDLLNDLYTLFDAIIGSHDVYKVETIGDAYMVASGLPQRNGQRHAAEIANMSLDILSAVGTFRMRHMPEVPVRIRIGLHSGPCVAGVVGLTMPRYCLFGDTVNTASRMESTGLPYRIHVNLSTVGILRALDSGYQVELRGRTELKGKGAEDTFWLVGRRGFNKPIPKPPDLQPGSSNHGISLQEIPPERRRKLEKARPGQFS
T1 sequence (O95843 2-209 partner): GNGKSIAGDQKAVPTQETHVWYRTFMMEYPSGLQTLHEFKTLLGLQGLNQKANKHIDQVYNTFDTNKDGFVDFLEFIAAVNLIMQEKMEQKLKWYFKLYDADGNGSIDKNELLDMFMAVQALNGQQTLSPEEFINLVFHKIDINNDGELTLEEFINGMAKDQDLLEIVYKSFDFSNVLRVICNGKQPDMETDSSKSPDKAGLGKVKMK
Briefly: cGMP production by reversed-phase HPLC. Type of data set: biochemical. The note with it: GC1 membranes, 1 mM free Mg2+, low (<19 nM) or high (~30 µM) Ca2+, pH 7.4; basal and with mGCAP3 or mGCAP1.

Data set [2] deals with the molecule itself. Briefly: SEC; analytical SEC, Superose 12 10/300GL, ~40 µM protein loaded, 20 mM Tris-HCl pH 7.5, 150 mM KCl, 1 mM DTT, 500 µM EGTA (apo), 25 °C; apparent MM from a calibration curve.
Data set [3] deals with the molecule itself. Briefly: SEC; analytical SEC, Superose 12 10/300GL, ~40 µM protein loaded, 20 mM Tris-HCl pH 7.5, 150 mM KCl, 1 mM DTT, 1 mM Mg2+ and 500 µM Ca2+, 25 °C; apparent MM from a calibration curve.

In the case of `Nc1nc2c(ncn2[C@@H]2O[C@@H]3COP(=O)(O)O[C@H]3[C@H]2O)c(=O)[nH]1` [cGMP], the “cGMP production by reversed-phase HPLC” value in data set [1] is given as “The production of cGMP was analyzed by reversed phase HPLC”.

B1: non-myristoylated wild-type human GCAP3 (guanylate cyclase-activating protein 3) (natural protein, UniProt O95843-1 1-209, looked up)
chain: MGNGKSIAGDQKAVPTQETHVWYRTFMMEYPSGLQTLHEFKTLLGLQGLNQKANKHIDQVYNTFDTNKDGFVDFLEFIAAVNLIMQEKMEQKLKWYFKLYDADGNGSIDKNELLDMFMAVQALNGQQTLSPEEFINLVFHKIDINNDGELTLEEFINGMAKDQDLLEIVYKSFDFSNVLRVICNGKQPDMETDSSKSPDKAGLGKVKMK
notes: Cloned into a plasmid named pET11-E6S; also called nmWT; nmWT GCAP3
For B1, the “stoichiometry N” value in data set [2] is 2.

B2: myristoylated wild-type human GCAP3 (guanylate cyclase-activating protein 3) (natural protein, UniProt O95843-1 1-209, looked up)
chain: MGNGKSIAGDQKAVPTQETHVWYRTFMMEYPSGLQTLHEFKTLLGLQGLNQKANKHIDQVYNTFDTNKDGFVDFLEFIAAVNLIMQEKMEQKLKWYFKLYDADGNGSIDKNELLDMFMAVQALNGQQTLSPEEFINLVFHKIDINNDGELTLEEFINGMAKDQDLLEIVYKSFDFSNVLRVICNGKQPDMETDSSKSPDKAGLGKVKMK
modifications: N-terminal myristoylation (degree of myristoylation 58.35%)
notes: Cloned into a plasmid named pET11-E6S; The sample is a mix of about 58% myristoylated and the rest non-myristoylated protein; also called mWT; mWT GCAP3
Regarding B2, in data set [2], the “stoichiometry N” value came out at 2.

B3: non-myristoylated D101H variant of human GCAP3 (natural protein, UniProt O95843-1 1-209, looked up)
chain: MGNGKSIAGDQKAVPTQETHVWYRTFMMEYPSGLQTLHEFKTLLGLQGLNQKANKHIDQVYNTFDTNKDGFVDFLEFIAAVNLIMQEKMEQKLKWYFKLYHADGNGSIDKNELLDMFMAVQALNGQQTLSPEEFINLVFHKIDINNDGELTLEEFINGMAKDQDLLEIVYKSFDFSNVLRVICNGKQPDMETDSSKSPDKAGLGKVKMK
notes: Variant found in a patient with retinitis pigmentosa; Cloned into a plasmid named pET11-E6S; also called nmD101H; nmD101H GCAP3
Regarding B3, the “stoichiometry N” value in data set [3] amounted to 2.

What is called stoichiometry N is the number of molecules, sites or subunits per partner or assembly.
